Experimental data published in the supplement of paper PMC11316812.
± gives the standard deviation of the averaged measurements.

Legend:
MCF7 = test: percentage of EdU-negative (G0-arrested) nuclei per well, 72 h; higher = more G0 arrest; settings: reference: sequence is the full UniProt precursor, the tested protein was the secreted form or ectodomain
hTERT-HMEC = test: as above; settings: reference: sequence is the full UniProt precursor, the tested protein was the secreted form or ectodomain
[1] = protein concentration 0.03125 µM
[2] = protein concentration 0.3125 µM
[3] = protein concentration 0.0225 µM
[4] = protein concentration 0.0194286 µM
[5] = protein concentration 0.194286 µM
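Also: secreted proteins added to cultured cells, EdU pulse at the end, nuclei found by Hoechst imaging, EdU status from nuclear versus surrounding ring intensity ratio, PBS as neutral control.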

For “MSERKEGRGKGKGKKKERGSGKKPESAAGSQSPALPPRLKEMKSQESAAGSKLVLRCETSSEYSSLRFKWFKNGNELNRKNKPQNIKIQKKPGKSELRINKASLADSGEYMCKVISKLGNDSASANITIVESNEIITGMPASTEGAYVSSESPIRISVSTEGANTSSSTSTSTTGTSHLVKCAEKEKTFCVNGGECFMVKDLSNPSRYLCKCQPGFTGARCTENVPMKVQNQEKAEELYQKRVLTITGICIALLVVGIMCVVAYCKTKKQRKKLHDRLRQSLRSERNNMMNIANGPHHPNPPPENVQLVNQYVSKNVISSEHIVEREAETSFSTSHYTSTAHHSTTVTQTPSHSWSNGHTESILSESHSVIVMSSVENSRHSSPTGGPRGRLNGTGGPRECNSFLRHARETPDSYRDSPHSERYVSAMTTPARMSPVDFHTPSSPKSPPSEMSPPVSSMTVSMPSMAVSPFMEEERPLLLVTPPRLREKKFDHHPQQFSSFHHNPAHDSNSLPASPLRIVEDEEYETTQEYEPAQEPVKKLANSRRAKRTKPNGHIANRLEVDSNTSSQSSNSESETEDERVGEDTPFLGIQNPLAASLEATPAFRLADSRTNPAGRFSTQEEIQARLSSVIANQDPIAV”, the “percentage of EdU-negative” value (MCF7; [1]) was 23.8 ± 3.8%, the “percentage of EdU-negative” value (MCF7; [2]) was 24.8 ± 0.83% and the “percentage of EdU-negative” value (hTERT-HMEC; [1]) was 4.23 ± 0.16%. The “percentage of EdU-negative” value (hTERT-HMEC; [2]) was 4.694 ± 0.041%.
For “MIPLLLAALLCVPAGALTCYGDSGQPVDWFVVYKLPALRGSGEAAQRGLQYKYLDESSGGWRDGRALINSPEGAVGRSLQPLYRSNTSQLAFLLYNDQPPQPSKAQDSSMRGHTKGVLLLDHDGGFWLVHSVPNFPPPASSAAYSWPHSACTYGQTLLCVSFPFAQFSKMGKQLTYTYPWVYNYQLEGIFAQEFPDLENVVKGHHVSQEPWNSSITLTSQAGAVFQSFAKFSKFGDDLYSGWLAAALGTNLQVQFWHKTVGILPSNCSDIWQVLNVNQIAFPGPAGPSFNSTEDHSKWCVSPKGPWTCVGDMNRNQGEEQRGGGTLCAQLPALWKAFQPLVKNYQPCNGMARKPSRAYKI”, the “percentage of EdU-negative” value (MCF7; [3]) was 24.5 ± 0.64%, the “percentage of EdU-negative” value (MCF7; protein concentration 0.225 µM) was 26.5 ± 3% and the “percentage of EdU-negative” value (hTERT-HMEC; [3]) was 5.36 ± 0.56%. For the same sequence, the “percentage of EdU-negative” value (hTERT-HMEC; protein concentration 0.225 µM) was 6.55 ± 0.55%.
For “MDFGLALLLAGLLGLLLGQSLQVKPLQVEPPEPVVAVALGASRQLTCRLACADRGASVQWRGLDTSLGAVQSDTGRSVLTVRNASLSAAGTRVCVGSCGGRTFQHTVQLLVYAFPDQLTVSPAALVPGDPEVACTAHKVTPVDPNALSFSLLVGGQELEGAQALGPEVQEEEEEPQGDEDVLFRVTERWRLPPLGTPVPPALYCQATMRLPGLELSHRQAIPVLHSPTSPEPPDTTSPESPDTTSPESPDTTSQEPPDTTSPEPPDKTSPEPAPQQGSTHTPRSPGSTRTRRPEISQAGPTQGEVIPTGSSKPAGDQLPAALWTSSAVLGLLLLALPTYHLWKRCRHLAEDDTHPPASLRLLPQVSAWAGLRGTGQVGISPS”, the “percentage of EdU-negative” value (MCF7; [3]) was 27.1 ± 4.2%, the “percentage of EdU-negative” value (MCF7; protein concentration 0.225 µM) was 26.3 ± 1.4% and the “percentage of EdU-negative” value (hTERT-HMEC; [3]) was 5.3 ± 0.25%. The “percentage of EdU-negative” value (hTERT-HMEC; protein concentration 0.225 µM) was 5.85 ± 0.98%.
With “MKLITILFLCSRLLLSLTQESQSEEIDCNDKDLFKAVDAALKKYNSQNQSNNQFVLYRITEATKTVGSDTFYSFKYEIKEGDCPVQSGKTWQDCEYKDAAKAATGECTATVGKRSSTKFSVATQTCQITPAEGPVVTAQYDCLGCVHPISTQSPDLEPILRHGIQYFNNNTQHSSLFMLNEVKRAQRQVVAGLNFRITYSIVQTNCSKENFLFLTPDCKSLWNGDTGECTDNAYIDIQLRIASFSQNCDIYPGKDFVQPPTKICVGCPRDIPTNSPELEETLTHTITKLNAENNATFYFKIDNVKKARVQVVAGKKYFIDFVARETTCSKESNEELTESCETKKLGQSLDCNAEVYVVPWEKKIYPTVNCQPLGMISLMKRPPGFSPFRSSRIGEIKEETTVSPPHTSMAPAQDEERDSGKEQGHTRRHDWGHEKQRKHNLGHGHKHERDQGHGHQRGHGLGHGHEQQHGLGHGHKFKLDDDLEHQGGHVLDHGHKHKHGHGHGKHKNKGKKNGKHNGWKTEHLASSSEDSTTPSAQTQEKTEGPTPIPSLAKPGVTVTFSDFQDSDLIATMMPPISPAPIQSDDDWIPDIQIDPNGLSFNPISDFPDTTSPKCPGRPWKSVSEINPTTQMKESYYFDLTDGLS” the “percentage of EdU-negative” value (MCF7; protein concentration 0.006 µM) was 24.3 ± 0.58%, the “percentage of EdU-negative” value (MCF7; protein concentration 0.06 µM) was 26.5 ± 0.67% and the “percentage of EdU-negative” value (hTERT-HMEC; protein concentration 0.006 µM) was 4.85 ± 0.42%. The “percentage of EdU-negative” value (hTERT-HMEC; protein concentration 0.06 µM) was 6.72 ± 0.15%.
For “MRALLLLGFLLVSLESTLSIPPWEAPKEHKYKAEEHTVVLTVTGEPCHFPFQYHRQLYHKCTHKGRPGPQPWCATTPNFDQDQRWGYCLEPKKVKDHCSKHSPCQKGGTCVNMPSGPHCLCPQHLTGNHCQKEKCFEPQLLRFFHKNEIWYRTEQAAVARCQCKGPDAHCQRLASQACRTNPCLHGGRCLEVEGHRLCHCPVGYTGAFCDVDTKASCYDGRGLSYRGLARTTLSGAPCQPWASEATYRNVTAEQARNWGLGGHAFCRNPDNDIRPWCFVLNRDRLSWEYCDLAQCQTPTQAAPPTPVSPRLHVPLMPAQPAPPKPQPTTRTPPQSQTPGALPAKREQPPSLTRNGPLSCGQRLRKSLSSMTRVVGGLVALRGAHPYIAALYWGHSFCAGSLIAPCWVLTAAHCLQDRPAPEDLTVVLGQERRNHSCEPCQTLAVRSYRLHEAFSPVSYQHDLALLRLQEDADGSCALLSPYVQPVCLPSGAARPSETTLCQVAGWGHQFEGAEEYASFLQEAQVPFLSLERCSAPDVHGSSILPGMLCAGFLEGGTDACQGDSGGPLVCEDQAAERRLTLQGIISWGSGCGDRNKPGVYTDVAYYLAWIREHTVS”, the “percentage of EdU-negative” value (MCF7; protein concentration 0.009 µM) was 27.06 ± 0.031%, the “percentage of EdU-negative” value (MCF7; protein concentration 0.09 µM) was 27.973 ± 0.024% and the “percentage of EdU-negative” value (hTERT-HMEC; protein concentration 0.009 µM) was 5.23 ± 0.56%. The “percentage of EdU-negative” value (hTERT-HMEC; protein concentration 0.09 µM) was 49.1 ± 0.6%.
In the case of “MCVTYHNGTGYCKCPEGFLGEYCQHRDPCEKNRCQNGGTCVAQAMLGKATCRCASGFTGEDCQYSTSHPCFVSRPCLNGGTCHMLSRDTYECTCQVGFTGKECQWTDACLSHPCANGSTCTTVANQFSCKCLTGFTGQKCETDVNECDIPGHCQHGGTCLNLPGSYQCQCLQGFTGQYCDSLYVPCAPSPCVNGGTCRQTGDFTFECNCLPETVRRGTELWERDREVWNGKEHDEN [Q7Z3S9]”, the “percentage of EdU-negative” value (MCF7; [3]) is reported as 26 ± 0.95%, the “percentage of EdU-negative” value (MCF7; protein concentration 0.225 µM) is reported as 24.5 ± 0.49% and the “percentage of EdU-negative” value (hTERT-HMEC; [3]) is reported as 5.34 ± 0.17%. The “percentage of EdU-negative” value (hTERT-HMEC; protein concentration 0.225 µM) was 5.36 ± 0.21%.
With “MGVAARPPALRHWFSHSIPLAIFALLLLYLSVRSLGARSGCGPRAQPCVPGETAPFQVRQESGTLEAPERKQPPCLGPRGMLGRMMRRFHASLKPEGDVGLSPYLAGWRALVEFLTPLGSVFAFATREAFTKVTDLEARVHGPDAEHYWSLVAMAAWERRAGLLEQPGAAPRDPTRSSGSRTLLLLHRALRWSQLCLHRVATGALGGPDAGVQCSDAYRAALGPHHPWLVRQTARLAFLAFPGRRRLLELACPGATEAEARAALVRAAGTLEDVYNRTQSLLAERGLLQLA [A6NH11]” the “percentage of EdU-negative” value (MCF7; [4]) was 23.4 ± 0.51%, the “percentage of EdU-negative” value (MCF7; [5]) was 25.5 ± 2.7% and the “percentage of EdU-negative” value (hTERT-HMEC; [4]) was 5.02 ± 1.8%. The “percentage of EdU-negative” value (hTERT-HMEC; [5]) was 5.53 ± 0.54%.
